This note sets out measurements from PMC11052993, “Functional implication of the homotrimeric multidomain vacuolar sorting receptor 1 (VSR1) from Arabidopsis thaliana” (Scientific Reports, 2024).

The data set concerns the molecule itself. Nature of the data set: crystal structure; space group P2(1)3, one molecule in the asymmetric unit, trimer built by crystallographic three-fold symmetry; 3.5 Å dataset, molecular replacement with PDB 4TJV.

B1: luminal domain of vacuolar sorting receptor 1 (VSR1) from Arabidopsis thaliana, residues 1 to 560 (domain or fragment, UniProt P93026 23-560, looked up)
chain: VEKNNLKVTSPDSIKGIYECAIGNFGVPQYGGTLVGTVVYPKSNQKACKSYSDFDISFKSKPGRLPTFVLIDRGDCYFTLKAWIAQQAGAAAILVADSKAEPLITMDTPEEDKSDADYLQNITIPSALITKTLGDSIKSALSGGDMVNMKLDWTESVPHPDERVEYELWTNSNDECGKKCDTQIEFLKNFKGAAQILEKGGHTQFTPHYITWYCPEAFTLSKQCKSQCINHGRYCAPDPEQDFTKGYDGKDVVVQNLRQACVYRVMNDTGKPWVWWDYVTDFAIRCPMKEKKYTKECADGIIKSLGIDLKKVDKCIGDPEADVENPVLKAEQESQIGKGSRGDVTILPTLVVNNRQYRGKLEKGAVLKAMCSGFQESTEPAICLTEDLETNECLENNGGCWQDKAANITACRDTFRGRLCECPTVQGVKFVGDGYTHCKASGALHCGINNGGCWRESRGGFTYSACVDDHSKDCKCPLGFKGDGVKNCEDVDECKEKTVCQCPECKCKNTWGSYECSCSNGLLYMREHDTCIGSGKVG
modifications: N-glycosylation at Asn289 (two N-acetylglucosamine)
notes: signal peptide in the construct; vacuolar sorting receptor 1 (VSR1), Arabidopsis thaliana, luminal part, residues 1 to 560; the model of the structure runs from Phe21 to Ala465 (Ser120-Asp137 disordered); Trimer by crystallographic three-fold symmetry; one molecule in the asymmetric unit; also called AtVSR1; full-length VSR1 luminal domain
As a reminder, the stoichiometry N is the number of molecules, sites or subunits per partner or assembly. As for B1, the “stoichiometry N” value is 3.
